US20190022243A1

Target: human AXL (full length) (human (Homo sapiens)) (UniProt P30530)
Assay: flow cytometry, A431 cells pre-incubated with 10 µg/mL Gas6 (competitor: Gas6)

fold higher EC50 after Gas6 pre-incubation than without Gas6: 21 fold | maximal binding in the presence of Gas6 (% of binding without Gas6): 19%
B1: IgG1-YW327.6S2 (antibody, from another filing, V domains shown)
VH: EVQLVESGGGLVQPGGSLRLSCAASGFSLSGSWIHWVRQAPGKGLEWVGWINPYRGYAYYADSVKGRFTISADTSKNTAYLQMNSLRAEDTAVYYCAREYSGWGGSSVGYAMDYWGQGTLVTVSS
VL: DIQMTQSPSSLSASVGDRVTITCRASQDVSTAVAWYQQKPGKAPKLLIYSASFLYSGVPSRFSGSGSGTDFTLTISSLQPEDFATYYCQQSYTTPPTFGQGTKVEIK
